These are literature values, as cited in publication PMC4160827.

This data set addresses HIF-1α CODD (Homo sapiens) (UniProt Q16665).

For orientation: Kd means a measure of binding affinity in units of concentration. For PHD2 (from UniProt Q9GZT9), the Kd is 14 µM.
